{
  "source": "patent US20180318386A1",
  "about": "“PEPTIDES AND METHODS OF TREATING ENDOMETRIOSIS USING THE SAME” (BIOINCEPT, LLC, priority 2014, published 2018)",
  "key": {"[1]": {"molecular_target": "14-3-3 protein zeta/delta (human) (UniProt P63104)", "sequence (P63104 whole entry, stated change not applied)": "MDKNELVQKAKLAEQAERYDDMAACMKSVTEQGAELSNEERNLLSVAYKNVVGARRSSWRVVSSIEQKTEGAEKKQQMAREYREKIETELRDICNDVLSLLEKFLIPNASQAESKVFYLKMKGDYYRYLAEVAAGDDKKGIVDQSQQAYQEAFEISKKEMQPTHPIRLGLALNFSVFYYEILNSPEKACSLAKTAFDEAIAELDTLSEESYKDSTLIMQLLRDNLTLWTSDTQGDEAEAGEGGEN", "assay": "PIF affinity resin pull-down, CD4+ cell lysate, LC-MS/MS count"}, "[2]": {"molecular_target": "Acidic leucine-rich nuclear phosphoprotein 32 family member A (human) (UniProt P39687)", "sequence (P39687 whole entry)": "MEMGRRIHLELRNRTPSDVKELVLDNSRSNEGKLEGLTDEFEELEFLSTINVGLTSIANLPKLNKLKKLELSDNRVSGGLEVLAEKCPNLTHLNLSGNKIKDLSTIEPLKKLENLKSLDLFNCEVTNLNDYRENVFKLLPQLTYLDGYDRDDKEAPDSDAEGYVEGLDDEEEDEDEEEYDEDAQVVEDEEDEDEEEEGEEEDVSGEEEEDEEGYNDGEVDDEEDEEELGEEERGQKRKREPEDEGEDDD", "assay": "PIF affinity resin pull-down, CD4+ cell lysate, LC-MS/MS count"}, "[3]": {"molecular_target": "Actin, cytoplasmic 1 (human) (UniProt P60709)", "assay": "PIF affinity resin pull-down, CD4+ cell lysate, LC-MS/MS count"}, "[4]": {"molecular_target": "Calreticulin (human) (UniProt P27797)", "assay": "PIF affinity resin pull-down, CD4+ cell lysate, LC-MS/MS count"}, "[5]": {"molecular_target": "Cartilage oligomeric matrix protein (human) (UniProt P49747)", "sequence (P49747 21-757 limits assumed)": "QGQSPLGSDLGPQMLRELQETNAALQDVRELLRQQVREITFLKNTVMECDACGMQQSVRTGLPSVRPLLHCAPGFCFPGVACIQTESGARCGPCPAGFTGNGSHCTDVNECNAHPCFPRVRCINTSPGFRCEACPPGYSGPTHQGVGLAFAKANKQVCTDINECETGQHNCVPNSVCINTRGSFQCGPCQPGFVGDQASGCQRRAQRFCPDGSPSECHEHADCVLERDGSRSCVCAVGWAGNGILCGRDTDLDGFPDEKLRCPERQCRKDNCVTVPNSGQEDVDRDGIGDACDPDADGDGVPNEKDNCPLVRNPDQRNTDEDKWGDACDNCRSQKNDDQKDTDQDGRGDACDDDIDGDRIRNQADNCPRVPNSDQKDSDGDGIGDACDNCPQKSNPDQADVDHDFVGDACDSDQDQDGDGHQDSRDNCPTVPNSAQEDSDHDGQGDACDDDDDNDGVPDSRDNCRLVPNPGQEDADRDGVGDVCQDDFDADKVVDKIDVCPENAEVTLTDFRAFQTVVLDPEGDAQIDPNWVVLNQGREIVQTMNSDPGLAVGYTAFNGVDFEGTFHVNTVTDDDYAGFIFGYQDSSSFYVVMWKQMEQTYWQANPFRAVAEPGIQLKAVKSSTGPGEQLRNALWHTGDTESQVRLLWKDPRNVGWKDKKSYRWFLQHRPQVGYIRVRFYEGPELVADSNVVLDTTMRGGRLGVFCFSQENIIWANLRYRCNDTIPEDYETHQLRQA", "assay": "PIF affinity resin pull-down, CD4+ cell lysate, LC-MS/MS count"}, "[6]": {"molecular_target": "Cofilin-1 (human) (UniProt P23528)", "sequence (P23528 2-166 limits assumed)": "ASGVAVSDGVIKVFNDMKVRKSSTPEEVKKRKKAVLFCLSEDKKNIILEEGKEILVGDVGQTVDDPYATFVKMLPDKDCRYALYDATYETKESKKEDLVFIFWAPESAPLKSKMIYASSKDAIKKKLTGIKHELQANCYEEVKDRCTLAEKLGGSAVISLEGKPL", "assay": "PIF affinity resin pull-down, CD4+ cell lysate, LC-MS/MS count"}, "[7]": {"molecular_target": "Hepatoma-derived growth factor (human) (UniProt P51858)", "sequence (P51858 whole entry)": "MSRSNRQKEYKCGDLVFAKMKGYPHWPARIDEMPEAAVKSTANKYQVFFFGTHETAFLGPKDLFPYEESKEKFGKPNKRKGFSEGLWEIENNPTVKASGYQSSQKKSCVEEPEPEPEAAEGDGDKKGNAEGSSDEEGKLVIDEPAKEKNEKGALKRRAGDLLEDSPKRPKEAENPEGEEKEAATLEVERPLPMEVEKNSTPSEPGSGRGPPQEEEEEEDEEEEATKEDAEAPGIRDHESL", "assay": "PIF affinity resin pull-down, CD4+ cell lysate, LC-MS/MS count"}, "[8]": {"molecular_target": "Isoform 11 of Titin (human) (UniProt Q8WZ42)", "assay": "PIF affinity resin pull-down, CD4+ cell lysate, LC-MS/MS count"}, "[9]": {"molecular_target": "Isoform 2 of Heat shock protein HSP 90-alpha (human) (UniProt P07900)", "assay": "PIF affinity resin pull-down, CD4+ cell lysate, LC-MS/MS count"}, "[10]": {"molecular_target": "Isoform 2 of Protein SET (human) (UniProt Q01105)", "sequence (Q01105 other isoform, or with tags, fused parts or gaps limits assumed)": "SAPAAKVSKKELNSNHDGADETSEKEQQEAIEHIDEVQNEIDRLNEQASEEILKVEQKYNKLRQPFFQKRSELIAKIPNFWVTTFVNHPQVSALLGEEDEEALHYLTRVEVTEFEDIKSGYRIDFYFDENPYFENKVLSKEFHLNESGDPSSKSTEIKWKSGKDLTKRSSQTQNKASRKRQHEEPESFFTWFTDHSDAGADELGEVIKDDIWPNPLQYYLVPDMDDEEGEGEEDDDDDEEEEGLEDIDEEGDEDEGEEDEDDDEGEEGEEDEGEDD", "assay": "PIF affinity resin pull-down, CD4+ cell lysate, LC-MS/MS count"}, "[11]": {"molecular_target": "Nucleolin (human) (UniProt P19338)", "sequence (P19338 2-710 limits assumed)": "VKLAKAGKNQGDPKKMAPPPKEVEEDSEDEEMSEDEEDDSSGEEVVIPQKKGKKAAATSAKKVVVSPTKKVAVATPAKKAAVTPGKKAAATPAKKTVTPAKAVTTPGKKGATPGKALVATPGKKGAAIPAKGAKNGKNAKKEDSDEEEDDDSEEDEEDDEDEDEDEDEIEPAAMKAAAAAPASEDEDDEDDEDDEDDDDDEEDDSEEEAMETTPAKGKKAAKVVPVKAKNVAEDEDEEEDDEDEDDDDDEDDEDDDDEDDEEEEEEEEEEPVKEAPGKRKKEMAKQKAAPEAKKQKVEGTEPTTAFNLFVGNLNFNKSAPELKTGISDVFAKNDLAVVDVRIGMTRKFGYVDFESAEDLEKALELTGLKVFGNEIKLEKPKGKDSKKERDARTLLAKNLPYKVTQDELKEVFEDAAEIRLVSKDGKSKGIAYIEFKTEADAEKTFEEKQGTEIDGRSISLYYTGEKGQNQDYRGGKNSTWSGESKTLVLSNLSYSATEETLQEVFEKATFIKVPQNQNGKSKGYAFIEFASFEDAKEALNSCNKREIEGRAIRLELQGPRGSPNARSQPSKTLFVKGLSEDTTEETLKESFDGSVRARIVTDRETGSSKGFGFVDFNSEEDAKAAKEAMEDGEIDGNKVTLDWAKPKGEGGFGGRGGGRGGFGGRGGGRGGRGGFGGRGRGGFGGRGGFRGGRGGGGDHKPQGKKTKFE", "assay": "PIF affinity resin pull-down, CD4+ cell lysate, LC-MS/MS count"}, "[12]": {"molecular_target": "Serine/arginine-rich-splicing factor 1 (human) (UniProt Q07955)", "assay": "PIF affinity resin pull-down, CD4+ cell lysate, LC-MS/MS count"}, "[13]": {"molecular_target": "Serine/arginine-rich-splicing factor 2 (human) (UniProt Q01130)", "sequence (Q01130 2-221 limits assumed)": "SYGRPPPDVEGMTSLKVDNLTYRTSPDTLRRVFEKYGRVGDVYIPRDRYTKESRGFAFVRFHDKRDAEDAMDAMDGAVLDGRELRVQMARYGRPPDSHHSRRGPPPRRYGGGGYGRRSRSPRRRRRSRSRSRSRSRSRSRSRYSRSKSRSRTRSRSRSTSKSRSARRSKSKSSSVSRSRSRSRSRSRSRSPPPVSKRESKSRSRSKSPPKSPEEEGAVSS", "assay": "PIF affinity resin pull-down, CD4+ cell lysate, LC-MS/MS count"}, "[14]": {"molecular_target": "Serum albumin (human) (UniProt P02768)", "assay": "PIF affinity resin pull-down, CD4+ cell lysate, LC-MS/MS count"}, "[15]": {"molecular_target": "Serum deprivation-response protein (human) (UniProt O95810)", "sequence (O95810 2-425 limits assumed)": "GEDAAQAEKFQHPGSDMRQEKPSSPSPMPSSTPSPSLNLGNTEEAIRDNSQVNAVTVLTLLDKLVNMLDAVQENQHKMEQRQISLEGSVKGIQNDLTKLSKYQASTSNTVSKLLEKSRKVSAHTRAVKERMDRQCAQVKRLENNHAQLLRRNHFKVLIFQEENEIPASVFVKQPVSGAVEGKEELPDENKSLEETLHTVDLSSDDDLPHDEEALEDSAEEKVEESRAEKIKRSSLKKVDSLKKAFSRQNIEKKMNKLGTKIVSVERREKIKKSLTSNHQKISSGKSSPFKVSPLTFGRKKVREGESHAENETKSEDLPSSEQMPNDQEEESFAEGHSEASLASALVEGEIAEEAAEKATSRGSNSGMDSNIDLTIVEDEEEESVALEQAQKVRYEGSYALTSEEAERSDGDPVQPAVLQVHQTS", "assay": "PIF affinity resin pull-down, CD4+ cell lysate, LC-MS/MS count"}, "[16]": {"molecular_target": "Thrombin light chain (human) (UniProt P00734)", "assay": "PIF affinity resin pull-down, CD4+ cell lysate, LC-MS/MS count"}, "[17]": {"molecular_target": "Thrombospondin-1 (human) (UniProt P07996)", "assay": "PIF affinity resin pull-down, CD4+ cell lysate, LC-MS/MS count"}, "[18]": {"molecular_target": "Thymosin alpha-1 (human) (UniProt P06454)", "sequence (P06454 other isoform, or with tags, fused parts or gaps limits assumed)": "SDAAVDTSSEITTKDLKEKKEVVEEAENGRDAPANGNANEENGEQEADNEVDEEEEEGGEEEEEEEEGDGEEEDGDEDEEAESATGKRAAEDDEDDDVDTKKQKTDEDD", "assay": "PIF affinity resin pull-down, CD4+ cell lysate, LC-MS/MS count"}, "[19]": {"molecular_target": "Tropomyosin alpha-4 chain (human) (UniProt P67936)", "sequence (P67936 2-248 limits assumed)": "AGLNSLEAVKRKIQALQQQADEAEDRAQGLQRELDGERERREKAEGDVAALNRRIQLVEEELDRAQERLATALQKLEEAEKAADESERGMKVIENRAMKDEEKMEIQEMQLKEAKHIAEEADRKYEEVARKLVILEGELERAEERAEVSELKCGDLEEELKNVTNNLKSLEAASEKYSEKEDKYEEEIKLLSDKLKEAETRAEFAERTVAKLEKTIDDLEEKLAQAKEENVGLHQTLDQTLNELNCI", "assay": "PIF affinity resin pull-down, CD4+ cell lysate, LC-MS/MS count"}, "[20]": {"molecular_target": "14-3-3 protein zeta/delta (human) (UniProt P63104)", "assay": "PIF affinity resin pull-down, CD14+ cell lysate, LC-MS/MS count"}, "[21]": {"molecular_target": "78 kDa glucose-regulated protein (human) (UniProt P11021)", "sequence (P11021 19-654 limits assumed)": "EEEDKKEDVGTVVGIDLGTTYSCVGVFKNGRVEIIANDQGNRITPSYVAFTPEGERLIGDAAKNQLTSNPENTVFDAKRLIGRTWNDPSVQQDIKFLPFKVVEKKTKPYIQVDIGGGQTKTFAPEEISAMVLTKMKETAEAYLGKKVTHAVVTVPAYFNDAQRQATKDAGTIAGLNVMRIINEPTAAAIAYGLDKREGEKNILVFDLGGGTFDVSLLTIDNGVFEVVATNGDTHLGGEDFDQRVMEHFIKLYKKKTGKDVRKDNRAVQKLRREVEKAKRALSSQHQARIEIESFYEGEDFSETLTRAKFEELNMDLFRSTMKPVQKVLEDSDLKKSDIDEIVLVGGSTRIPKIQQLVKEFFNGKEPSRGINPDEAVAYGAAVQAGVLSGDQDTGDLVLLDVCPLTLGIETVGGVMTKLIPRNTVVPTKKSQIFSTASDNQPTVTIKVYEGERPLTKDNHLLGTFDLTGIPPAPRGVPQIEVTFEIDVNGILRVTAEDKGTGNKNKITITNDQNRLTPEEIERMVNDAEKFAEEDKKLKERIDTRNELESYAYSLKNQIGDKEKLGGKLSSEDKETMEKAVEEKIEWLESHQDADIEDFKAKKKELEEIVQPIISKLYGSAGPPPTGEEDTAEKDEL", "assay": "PIF affinity resin pull-down, CD14+ cell lysate, LC-MS/MS count"}, "[22]": {"molecular_target": "Isoform 2 of Adenylyl cyclase-associated protein 1 (human) (UniProt Q01518)", "sequence (Q01518 other isoform, or with tags, fused parts or gaps limits assumed)": "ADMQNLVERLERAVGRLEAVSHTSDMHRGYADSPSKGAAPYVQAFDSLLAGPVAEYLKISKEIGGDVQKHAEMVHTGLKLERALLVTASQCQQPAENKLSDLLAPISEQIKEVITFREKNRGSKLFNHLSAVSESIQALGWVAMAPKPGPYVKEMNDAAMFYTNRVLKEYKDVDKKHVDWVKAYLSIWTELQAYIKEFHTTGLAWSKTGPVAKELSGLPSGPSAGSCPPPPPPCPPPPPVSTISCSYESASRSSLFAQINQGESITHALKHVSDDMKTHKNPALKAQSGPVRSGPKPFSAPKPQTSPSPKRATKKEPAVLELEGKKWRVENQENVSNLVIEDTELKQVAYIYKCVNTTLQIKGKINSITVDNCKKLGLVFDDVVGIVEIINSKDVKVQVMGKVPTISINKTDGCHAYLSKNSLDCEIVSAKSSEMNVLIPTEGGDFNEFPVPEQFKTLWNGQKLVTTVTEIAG", "assay": "PIF affinity resin pull-down, CD14+ cell lysate, LC-MS/MS count"}, "[23]": {"molecular_target": "Thrombospondin-1 (human) (UniProt P07996)", "assay": "PIF affinity resin pull-down, CD14+ cell lysate, LC-MS/MS count"}, "[24]": {"molecular_target": "Transitional endoplasmic reticulum ATPase (human) (UniProt P55072)", "assay": "PIF affinity resin pull-down, CD14+ cell lysate, LC-MS/MS count"}},
  "data": [
    {"substance": "PIF15 affinity resin (Cys-C6 spacer-PIF15 conjugated to agarose) (peptide)", "values": [
      {"measurement": "Ave", "setting": "[1]", "value": 3},
      {"measurement": "Inject 1", "setting": "[1]", "value": 3},
      {"measurement": "Inject 2", "setting": "[1]", "value": 3},
      {"measurement": "Inject 3", "setting": "[1]", "value": 3},
      {"measurement": "Ave", "setting": "[2]", "value": 1},
      {"measurement": "Inject 1", "setting": "[2]", "value": 1},
      {"measurement": "Inject 2", "setting": "[2]", "value": 1},
      {"measurement": "Inject 3", "setting": "[2]", "value": 1},
      {"measurement": "Ave", "setting": "[3]", "value": 2},
      {"measurement": "Inject 1", "setting": "[3]", "value": 2},
      {"measurement": "Inject 2", "setting": "[3]", "value": 2},
      {"measurement": "Inject 3", "setting": "[3]", "value": 2},
      {"measurement": "Ave", "setting": "[4]", "value": 4},
      {"measurement": "Inject 1", "setting": "[4]", "value": 4},
      {"measurement": "Inject 2", "setting": "[4]", "value": 4},
      {"measurement": "Inject 3", "setting": "[4]", "value": 4},
      {"measurement": "Ave", "setting": "[5]", "value": 10},
      {"measurement": "Inject 1", "setting": "[5]", "value": 10},
      {"measurement": "Inject 2", "setting": "[5]", "value": 10},
      {"measurement": "Inject 3", "setting": "[5]", "value": 11},
      {"measurement": "Ave", "setting": "[6]", "value": 1},
      {"measurement": "Inject 1", "setting": "[6]", "value": 1},
      {"measurement": "Inject 2", "setting": "[6]", "value": 1},
      {"measurement": "Inject 3", "setting": "[6]", "value": 1},
      {"measurement": "Ave", "setting": "[7]", "value": 3},
      {"measurement": "Inject 1", "setting": "[7]", "value": 3},
      {"measurement": "Inject 2", "setting": "[7]", "value": 3},
      {"measurement": "Inject 3", "setting": "[7]", "value": 3},
      {"measurement": "Ave", "setting": "[8]", "value": 2},
      {"measurement": "Inject 1", "setting": "[8]", "value": 2},
      {"measurement": "Inject 2", "setting": "[8]", "value": 2},
      {"measurement": "Inject 3", "setting": "[8]", "value": 2},
      {"measurement": "Ave", "setting": "[9]", "value": 4},
      {"measurement": "Inject 1", "setting": "[9]", "value": 4},
      {"measurement": "Inject 2", "setting": "[9]", "value": 4},
      {"measurement": "Inject 3", "setting": "[9]", "value": 4},
      {"measurement": "Ave", "setting": "[10]", "value": 4},
      {"measurement": "Inject 1", "setting": "[10]", "value": 3},
      {"measurement": "Inject 2", "setting": "[10]", "value": 4},
      {"measurement": "Inject 3", "setting": "[10]", "value": 4},
      {"measurement": "Ave", "setting": "[11]", "value": 2},
      {"measurement": "Inject 1", "setting": "[11]", "value": 2},
      {"measurement": "Inject 2", "setting": "[11]", "value": 2},
      {"measurement": "Inject 3", "setting": "[11]", "value": 2},
      {"measurement": "Ave", "setting": "[12]", "value": 2},
      {"measurement": "Inject 1", "setting": "[12]", "value": 2},
      {"measurement": "Inject 2", "setting": "[12]", "value": 2},
      {"measurement": "Inject 3", "setting": "[12]", "value": 2},
      {"measurement": "Ave", "setting": "[13]", "value": 2},
      {"measurement": "Inject 1", "setting": "[13]", "value": 1},
      {"measurement": "Inject 2", "setting": "[13]", "value": 2},
      {"measurement": "Inject 3", "setting": "[13]", "value": 3},
      {"measurement": "Ave", "setting": "[14]", "value": 8},
      {"measurement": "Inject 1", "setting": "[14]", "value": 4},
      {"measurement": "Inject 2", "setting": "[14]", "value": 7},
      {"measurement": "Inject 3", "setting": "[14]", "value": 12},
      {"measurement": "Ave", "setting": "[15]", "value": 2},
      {"measurement": "Inject 1", "setting": "[15]", "value": 2},
      {"measurement": "Inject 2", "setting": "[15]", "value": 2},
      {"measurement": "Inject 3", "setting": "[15]", "value": 2},
      {"measurement": "Ave", "setting": "[16]", "value": 3},
      {"measurement": "Inject 1", "setting": "[16]", "value": 3},
      {"measurement": "Inject 2", "setting": "[16]", "value": 3},
      {"measurement": "Inject 3", "setting": "[16]", "value": 3},
      {"measurement": "Ave", "setting": "[17]", "value": 6},
      {"measurement": "Inject 1", "setting": "[17]", "value": 6},
      {"measurement": "Inject 2", "setting": "[17]", "value": 6},
      {"measurement": "Inject 3", "setting": "[17]", "value": 6},
      {"measurement": "Ave", "setting": "[18]", "value": 5},
      {"measurement": "Inject 1", "setting": "[18]", "value": 4},
      {"measurement": "Inject 2", "setting": "[18]", "value": 5},
      {"measurement": "Inject 3", "setting": "[18]", "value": 7},
      {"measurement": "Ave", "setting": "[19]", "value": 4},
      {"measurement": "Inject 1", "setting": "[19]", "value": 4},
      {"measurement": "Inject 2", "setting": "[19]", "value": 4},
      {"measurement": "Inject 3", "setting": "[19]", "value": 4},
      {"measurement": "Ave", "setting": "[20]", "value": 4},
      {"measurement": "Inject 1", "setting": "[20]", "value": 4},
      {"measurement": "Inject 2", "setting": "[20]", "value": 3},
      {"measurement": "Inject 3", "setting": "[20]", "value": 4},
      {"measurement": "Ave", "setting": "[21]", "value": 4},
      {"measurement": "Inject 1", "setting": "[21]", "value": 6},
      {"measurement": "Inject 2", "setting": "[21]", "value": 3},
      {"measurement": "Inject 3", "setting": "[21]", "value": 3},
      {"measurement": "Ave", "setting": "[22]", "value": 3},
      {"measurement": "Inject 1", "setting": "[22]", "value": 4},
      {"measurement": "Inject 2", "setting": "[22]", "value": 3},
      {"measurement": "Inject 3", "setting": "[22]", "value": 2},
      {"measurement": "Ave", "setting": "[23]", "value": 7},
      {"measurement": "Inject 1", "setting": "[23]", "value": 7},
      {"measurement": "Inject 2", "setting": "[23]", "value": 5},
      {"measurement": "Inject 3", "setting": "[23]", "value": 8},
      {"measurement": "Ave", "setting": "[24]", "value": 3},
      {"measurement": "Inject 1", "setting": "[24]", "value": 3},
      {"measurement": "Inject 2", "setting": "[24]", "value": 2},
      {"measurement": "Inject 3", "setting": "[24]", "value": 3}
    ]}
  ]
}
